{"source": "patent US20190381169A1", "about": "“PHARMACEUTICAL COMBINATIONS FOR IMMUNOTHERAPY” (Technische Universitat Dresden, priority 2014, published 2019)", "key": {"[1]": {"target": "T1, p75^NTR (Mus musculus, UniProt Q9Z0W1)", "T1 construct": "endogenous in cells; host or cells: murine plasmacytoid dendritic cells differentiated in vitro from bone marrow with Flt3-L (p75NTR+/+ wildtype; p75NTR-/- as control)", "T1 sequence (Q9Z0W1 32-427)": "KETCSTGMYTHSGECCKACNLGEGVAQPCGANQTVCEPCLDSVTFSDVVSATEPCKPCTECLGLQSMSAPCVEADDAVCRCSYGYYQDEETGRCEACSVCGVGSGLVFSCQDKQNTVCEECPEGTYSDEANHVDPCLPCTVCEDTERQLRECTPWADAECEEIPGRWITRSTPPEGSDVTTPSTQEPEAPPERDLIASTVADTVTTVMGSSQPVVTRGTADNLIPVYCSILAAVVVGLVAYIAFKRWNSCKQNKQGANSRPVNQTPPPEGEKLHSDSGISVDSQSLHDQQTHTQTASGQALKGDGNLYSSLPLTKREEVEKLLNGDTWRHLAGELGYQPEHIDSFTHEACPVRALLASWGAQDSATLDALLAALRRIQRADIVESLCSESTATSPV", "experiment": "Expression of MHC and co-stimulatory molecules on murine PDCs", "assay_type": "cell-based"}, "[2]": {"target": "T1, p75^NTR", "experiment": "OVA-mediated allergic asthma induced by intratracheal OVA-loaded PDCs", "assay_type": "in vivo", "source_text": "Heterozygous p75^NTR knockout mice (p75^NTR+/−) were purchased from The Jackson Laboratory (Bar Harbor, Me., USA) and bred under pathogen-free conditions in the animal facility of the TU Dresden. Male and female p75^NTR+/+ and p75^NTR−/− mice were used at 10-12 weeks of age for experiments.\nMurine PDC were generated in vitro as follows: Bone marrow cells were isolated by flushing femur and tibia of mice. Erythrocytes were lysed using ACK buffer. Remaining cells were washed and cultured at a density of 2×10^6 cells per ml in RPMI 1640 medium supplemented with 10% FCS, 1 mM sodium pyruvat, 2 mM L-glutamine, 100 IU per ml penicillin, 100 μg/ml streptomycin, 10 mM HEPES buffer and 0.1 mM β-mercaptoethanol. To differentiate bone marrow cells into PDCs, 100 ng/ml Flt3-L (fms-like tyrosine kinase 3-ligand) was added to the cells. After 8 days of culture PDCs were enriched by removing the CD11b^+ fraction using CD11b Microbeads (Miltenyi Biotec) according to manufacturer instructions. Dead cells were excluded using Dead cell removal Kit (Miltenyi Biotec). Purity of PDCs was evaluated by flow cytometry (CD11b^−CD11c^+B220^+Siglec-H^+).\nTo induce allergic asthma, in vitro generated PDCs were incubated with 100 μg/ml ovalbumin (OVA; grade V; Sigma-Aldrich) for 24 h. To sensitize mice, 1×10^6 OVA-loaded PDCs were injected intratracheally to the lungs of anesthetized mice using 24GA i.v. cannula (BD Neoflon™). Control animals received either the same amount of PDCs without OVA or PBS. After 10 days, mice were exposed to 1% w/v OVA-aerosol for 30 min on 3 consecutive days in order to induce allergic reaction. 24 h after last provocation, animals were sacrificed and the immune reaction was examined based on the bronchoalveolar lavage fluid (BALF) cell composition (eosinophils, lymphocytes, macrophages) and pro-inflammatory cytokines spectrum, lung histology and blood serum OVA-specific IgE levels.\nBALF cells were quantified by flow cytometry. Cells were preincubated with FcR blocking reagent to avoid a non-specific binding. The following antibodies were used for staining: CD3-V500, CD4-V450, CD8-PE Cy7, CD11c-APC Cy7, B220-PE, F4/80-PerCP, SiglecF-AF647, Ly6G-FITC. Among lymphocytes (FSC^low/SSC^low) the CD4^+ T helper cells were designated as CD3^posCD4^pos; the CD8^+ T helper cells as CD3^posCD8^pos; B-cells as CD3^negB220^pos; among granulocytes (FSC^low/SSC^high, Ly6G^pos) eosinophils were assigned as SiglecF^posCD11c^neg and neutrophils as SiglecF^neg. Macrophages were assigned as FSC^high highly autofluorescent CD11c^posF4/80^pos cells. Additionally, the cytospins of collected cells were prepared and stained according to Pappenheim's method.\nBALF supernatant was used for quantification of IL-4, IL-5 and IL-13 by ELISA (eBioscience) according to manufacturer instruction.\nLungs were perfused with PBS and fixed in 4% v/v formaldehyde. 4 μm sections of paraffin-embedded lungs were stained with PAS staining for quantification of inflammation and GobleT-cell hyperplasia.\nNGF is present in the lung and increased during inflammatory processes such as allergic asthma. To investigate the impact of NGF on PDCs during allergen-mediated immune response, p75^NTR+/+ PDCs were incubated with ovalbumin (OVA) in the presence or absence of NGF (100 ng/ml) prior intratracheal instillation to p75^NTR+/+ mice.\nTo substantiate the p75^NTR dependent impact of NGF on PDCs during allergen-mediated immune response, p75^NTR+/+ PDCs were incubated with ovalbumin (OVA) and NGF (100 ng/ml) in the presence or absence of the p75^NTR-specific inhibitory peptide PEP5 prior intratracheal instillation to p75^NTR+/+ mice."}, "[3]": {"conditions": "p75^NTR+/+ PDCs stimulated with CpG B, presence of NGF"}, "[4]": {"conditions": "p75^NTR+/+ PDCs stimulated with ovalbumin (OVA), NGF added"}, "[5]": {"conditions": "p75^NTR+/+ PDCs incubated with OVA in presence of NGF (100 ng/ml) vs OVA alone, then intratracheal instillation to p75^NTR+/+ mice"}}, "note": "Entries after “also recorded” stand apart in the source; their conditions may differ.", "data": [{"substance": "NGF: Nerve growth factor, best characterized neurotrophin; natural p75^NTR agonist (R&D Systems)", "values": [{"measurement": "expression of MHC-II", "setting": "[1]; p75^NTR+/+ PDCs stimulated with CpG A, presence of NGF", "result": "reduced expression; also recorded: decreased expression"}, {"measurement": "expression of MHC I", "setting": "[1]; [3]", "result": "further increased expression"}, {"measurement": "expression of MHC-II", "setting": "[1]; [3]", "result": "increased expression; also recorded: further increase"}, {"measurement": "expression of ICOS-L and MHC-II", "setting": "[1]; [4]", "result": "further increased; also recorded: increased expression"}, {"measurement": "expression of MHC-I, PD-L1 and Ox40-L", "setting": "[1]; [4]", "result": "altered the expression; also recorded: decreased expression"}, {"measurement": "expression of MHC-I, PD-L1 and Ox40-L on p75^NTR−/− PDCs", "setting": "[1]; p75^NTR−/− PDCs stimulated with ovalbumin, NGF added", "result": "but not on p75^NTR−/− PDCs"}, {"measurement": "number of macrophages in BALF", "setting": "[2]; OVA up-take by PDCs in presence of NGF vs OVA alone", "result": "decreased"}, {"measurement": "production of Th2 cytokines (IL-4, IL-5 and IL-13) in the lung", "setting": "[2]; OVA-loaded PDCs treated with NGF vs pulsed with OVA in absence of NGF", "result": "increased production"}, {"measurement": "inflammatory phenotype in the lung (histology: perivascular inflammation, mucus production)", "setting": "[2]; PDCs treated with NGF during OVA-uptake", "result": "potentiated the inflammatory phenotype in the lung"}, {"measurement": "numbers of eosinophils in BALF", "setting": "[2]; [5]", "result": "significantly augmented"}, {"measurement": "numbers of lymphocytes in BALF", "setting": "[2]; [5]", "result": "significantly augmented"}, {"measurement": "induction of airway inflammation by p75^NTR−/− PDCs", "setting": "[2]; p75^NTR−/− PDCs loaded with OVA in presence or absence of NGF, data not shown", "result": "not able to induce airway inflammation"}]}]}
